Measurements reported in article PMC2516929, “Yersinia enterocolitica Serum Resistance Proteins YadA and Ail Bind the Complement Regulator C4b-Binding Protein” (PLoS Pathogens, 2008).

What was measured:
[1] = molecular target: T1, YadA of Y. enterocolitica serotype O:3 (strain 6471/76), on the bacterial surface (Y. enterocolitica serotype O:3 (strain …, UniProt P31489 26-455)); assay: radioligand binding; 125I-C4bp with 3x10^8 bacteria in 1/3 GVBS with NaCl from 50 to 650 mM; binding as percent of that at 50 mM NaCl; conditions: one partner purified
T1 construct: adhesin YadA, Y. enterocolitica 6471/76 serotype O:3, GenBank protein CAA32086; trimeric outer membrane protein; also called YadA (wild type, YeO3); source: endogenous (virulence plasmid pYV), on Y. enterocolitica O:3 strain 6471/76 (YeO3), grown in RPMI 1640 at 37°C
T1 sequence: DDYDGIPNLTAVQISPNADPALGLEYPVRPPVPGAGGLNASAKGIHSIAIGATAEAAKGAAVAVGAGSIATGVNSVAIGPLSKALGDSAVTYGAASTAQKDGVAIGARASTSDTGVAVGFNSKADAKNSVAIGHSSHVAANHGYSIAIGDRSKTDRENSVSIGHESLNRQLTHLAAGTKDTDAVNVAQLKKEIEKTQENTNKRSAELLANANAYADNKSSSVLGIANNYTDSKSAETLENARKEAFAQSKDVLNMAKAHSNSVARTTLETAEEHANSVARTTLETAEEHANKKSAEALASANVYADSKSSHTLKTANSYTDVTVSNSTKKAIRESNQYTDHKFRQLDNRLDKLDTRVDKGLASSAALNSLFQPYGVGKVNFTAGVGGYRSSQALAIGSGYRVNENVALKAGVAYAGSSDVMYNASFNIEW

[2] = molecular target: T2, Ail of Y. enterocolitica serotype O:3, expressed in trans from pTM100-ail on strain YeO3-c-Ail-OCR (Y. enterocolitica serotype O:3, UniProt Q70AM3 24-178); assay: radioligand binding; 125I-C4bp (or 125I-BSA) with 3x10^8 bacteria in hypotonic 1/3 GVBS (50 mM NaCl), 30 min at 37°C; bacteria pelleted through 20% sucrose; bound as percent of total radioactivity; conditions: one partner purified
T2 construct: Ail, Y. enterocolitica serotype O:3, ail gene cloned as 1711 bp PCR fragment into pTM100; GenBank protein CAE53849; Same protein as m5, from a plasmid; also called Ail (complemented); YeO3-c-Ail-OCR/pTM100-ail; source: pTM100-ail (cloned ail gene) in Y. enterocolitica YeO3-c-Ail-OCR (YadA-, Ail-, O-ag-, OC-), on the bacteria; overexpressed
T2 sequence: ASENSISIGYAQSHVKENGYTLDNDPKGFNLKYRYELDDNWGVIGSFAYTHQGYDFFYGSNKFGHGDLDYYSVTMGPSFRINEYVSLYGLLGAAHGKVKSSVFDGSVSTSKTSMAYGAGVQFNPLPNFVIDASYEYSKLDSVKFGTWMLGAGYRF

B1: C4b-binding protein (C4bp) with protein S (complex)
chain 1: NCGPPPTLSFAAPMDITLTETRFKTGTTLKYTCLPGYVRSHSTQTLTCNSDGEWVYNTFCIYKRCRHPGELRNGQVEIKTDLSFGSQIEFSCSEGFFLIGSTTSRCEVQDRGVGWSHPLPQCEIVKCKPPPDIRNGRHSGEENFYAYGFSVTYSCDPRFSLLGHASISCTVENETIGVWRPSPPTCEKITCRKPDVSHGEMVSGFGPIYNYKDTIVFKCQKGFVLRGSSVIHCDADSKWNPSPPACEPNSCINLPDIPHASWETYPRPTKEDVYVVGTVLRYRCHPGYKPTTDEPTTVICQKNLRWTPYQGCEALCCPEPKLNNGEITQHRKSRPANHCVYFYGDEISFSCHETSRFSAICQGDGTWSPRTPSCGDICNFPPKIAHGHYKQSSSYSFFKEEIIYECDKGYILVGQAKLSCSYSHWSAPAPQCKALCRKPELVNGRLSVDKDQYVEPENVTIQCDSGYGVVGPQSITCSGNRTWYPEVPKCEWETPEGCEQVLTGKRLMQCLPNPEDVKMALEVYKLSLEIEQLELQRDSARQSTLDKEL
chain 2: SDAEHCPELPPVDNSIFVAKEVEGQILGTYVCIKGYHLVGKKTLFCNASKEWDNTTTECRLGHCPDPVLVNGEFSSSGPVNVSDKITFMCNDHYILKGSNRSQCLEDHTWAPPFPICKSRDCDPPGNPVHGYFEGNNFTLGSTISYYCEDRYYLVGVQEQQCVDGEWSSALPVCKLIQEAPKPECEKALLAFQESKNLCEAMENFMQQLKESGMTMEELKYSLELKKAELKAKLL
chain 3: ANSLLEETKQGNLERECIEELCNKEEAREVFENDPETDYFYPKYLVCLRSFQTGLFTAARQSTNAYPDLRSCVNAIPDQCSPLPCNEDGYMSCKDGKASFTCTCKPGWQGEKCEFDINECKDPSNINGGCSQICDNTPGSYHCSCKNGFVMLSNKKDCKDVDECSLKPSICGTAVCKNIPGDFECECPEGYRYNLKSKSCEDIDECSENMCAQLCVNYPGGYTCYCDGKKGFKLAQDQKSCEVVSVCLPLNLDTKYELLYLAEQFAGVVLYLKFRLPEISRFSAEFDFRTYDSEGVILYAESIDHSAWLLIALRGGKIEVQLKNEHTSKITTGGDVINNGLWNMVSVEELEHSISIKIAKEAVMDINKPGPLFKPENGLLETKVYFAGFPRKVESELIKPINPRLDGCIRSWNLMKQGASGIKEIIQEKQNKHCLVTVEKGSYYPGSGIAQFHIDYNNVSSAEGWHVNVTLNIRPSTGTGVMLALVSGNNTVPFAVSLVDSTSEKSQDILLSVENTVIYRIQALSLCSDQQSHLEFRVNRNNLELSTPLKIETISHEDLQRQLAVLDKAMKAKVATYLGGLPDVPFSATPVNAFYNGCMEVNINGVQLDLDEAISKHNDIRAHSCPSVWKKTKNS
modifications: 125I label (Iodogen method) in the 125I-C4bp assays; labelled chain and residues not stated
notes: eight CCP domains; the predominant form has seven identical alpha chains; three CCP domains; one beta chain in the predominant form; protein S, human; co-purified with C4bp from plasma ('C4bp with protein S'); also called 125I-C4bp; serum C4bp; source: purified from pooled human plasma (with protein S); copies: 7 + 1 +
[1]
  fold decrease of C4bp binding at 100 mM NaCl against 50 mM NaCl: 2 fold
[2]
  fold C4bp binding capacity against strain YeO3-c-OCR: ~4 fold
